# Experiments:
# Conditions in all cases: protein: recombinant; tags: N-terminal His6, removed by TEV; single strand
# FIR RRM1-2 WT [1] = biological target: T1, FIR RRM1-2 WT (UniProt Q9UHX1-2 101-293); experiment: ITC; ITC: 25 mM HEPES pH 7.5, 150 mM NaCl, 0.5 mM TCEP, 20 C; protein 160-240 uM titrated into ssDNA 40-50 uM
# FIR RRM1-2 WT [2] = biological target: T1, FIR RRM1-2 WT; experiment: X-ray crystallography (2.05 A); ethylene glycol contacts the bound guanine; ITC: 25 mM HEPES pH 7.5, 150 mM NaCl, 0.5 mM TCEP, 20 C; protein 160-240 uM titrated into ssDNA 40-50 uM
# FIR RRM1-2 Y115F [3] = biological target: T2, FIR RRM1-2 Y115F (UniProt Q9UHX1-2 101-293, Y115F); experiment: X-ray crystallography (1.65 A); ITC: 25 mM HEPES pH 7.5, 150 mM NaCl, 0.5 mM TCEP, 20 C; protein 160-240 uM titrated into ssDNA 40-50 uM
# FIR RRM1-2 Y115F [4] = biological target: T2, FIR RRM1-2 Y115F; experiment: ITC; ITC: 25 mM HEPES pH 7.5, 150 mM NaCl, 0.5 mM TCEP, 20 C; protein 160-240 uM titrated into ssDNA 40-50 uM
# T1 sequence (Q9UHX1 118-310): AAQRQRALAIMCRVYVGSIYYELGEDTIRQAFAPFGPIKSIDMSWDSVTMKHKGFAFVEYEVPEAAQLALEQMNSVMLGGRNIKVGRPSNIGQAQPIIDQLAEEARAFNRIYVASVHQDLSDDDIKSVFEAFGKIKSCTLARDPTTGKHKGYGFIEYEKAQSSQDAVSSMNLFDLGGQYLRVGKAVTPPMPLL
# T2 sequence (Q9UHX1 118-310 Y132F): as the sequence (Q9UHX1 118-310) above, with Y15F counted along it
binder,measurement,setting,value
TTGTTTT (ssDNA),Kd,FIR RRM1-2 WT [1],2 µM
TTTTTATTTTGTGTT (ssDNA) [FUSE 15-nt],binding result,FIR RRM1-2 WT [2],binds
same,binding result,FIR RRM1-2 Y115F [3],binds
TTATTTT (ssDNA),Kd,FIR RRM1-2 WT [1],11 µM
TAATTTT (ssDNA),Kd,FIR RRM1-2 Y115F [4],~6 µM

# Reference: publication PMC10229228, “Structural insights into a regulatory mechanism of FIR RRM1–FUSE interaction”
